Results reported in patent publication US10159726B2, “Peptides, combination of peptides and scaffolds for use in immunotherapeutic treatment of various cancers” (Immatics Biotechnologies GmbH, priority 2015, dated 2018).

target: HLA-A*02 (Homo sapiens, UniProt P04439, D140Y/D185E/D98H/E176V/E277Q/G131W/G231S/I119V/I121R/I166T/I218V/N151K/N90K/P208A/P217A/Q86G/Q94H/R138H/R169H); assay: MHC binding assay, UV-ligand exchange with beta2m ELISA, HLA-A*02; settings: peptide exchange yield
Source text: Candidate peptides for T cell based therapies according to the present invention were further tested for their MHC binding capacity (affinity). The individual peptide-MHC complexes were produced by UV-ligand exchange, where a UV-sensitive peptide is cleaved upon UV-irradiation, and exchanged with the peptide of interest as analyzed. Only peptide candidates that can effectively bind and stabilize the peptide-receptive MHC molecules prevent dissociation of the MHC complexes. To determine the yield of the exchange reaction, an ELISA was performed based on the detection of the light chain (β2m) of stabilized MHC complexes. The assay was performed as generally described in Rodenko et al. (Rodenko et al., 2006).
96 well MAXISorp plates (NUNC) were coated over night with 2 ug/ml streptavidin in PBS at room temperature, washed 4× and blocked for 1 h at 37° C. in 2% BSA containing blocking buffer. […] Peptide-MHC monomers of the UV-exchange reaction were diluted 100 fold in blocking buffer. Samples were incubated for 1 h at 37° C., washed four times, incubated with 2 ug/ml HRP conjugated anti-β2m for 1 h at 37° C., washed again and detected with TMB solution that is stopped with […]. Absorption was measured at 450 nm. Candidate peptides that show a high exchange yield (preferably higher than 50%, most preferred higher than 75%) are generally preferred for a generation and production of antibodies or fragments thereof, and/or T cell receptors or fragments thereof, as they show sufficient avidity to the MHC molecules and prevent dissociation of the MHC complexes.

Row | Substance | MHC class I binding score, Peptide exchange
1 | 1 (PLWGKVFYL; listed as Homo sapiens) [compound 1] | ++ (20%-49% = ++)
2 | 3 (TLLGKQVTL; listed as Homo sapiens) [compound 3] | +++ (50%-75% = +++)
3 | 4 (ELAEIVFKV; listed as Homo sapiens) [compound 4] | +++ (50%-75% = +++)
4 | 5 (SLFGQEVYC; listed as Homo sapiens) [compound 5] | +++ (50%-75% = +++)
5 | 6 (FLDPAQRDL; listed as Homo sapiens) [compound 6] | +++ (50%-75% = +++)
6 | 8 (KLGPFLLNA; listed as Homo sapiens) [compound 8] | +++ (50%-75% = +++)
7 | 10 (KTLDVFNIIL; listed as Homo sapiens) [compound 10] | ++ (20%-49% = ++)
8 | 11 (GVLKVFLENV; listed as Homo sapiens) [compound 11] | ++ (20%-49% = ++)
9 | 12 (GLIYEETRGV; listed as Homo sapiens) [compound 12] | ++ (20%-49% = ++)
10 | 13 (VLRDNIQGI; listed as Homo sapiens) [compound 13] | +++ (50%-75% = +++)
11 | 14 (LLDHLSFINKI; listed as Homo sapiens) [compound 14] | ++ (20%-49% = ++)
12 | 16 (HLYNNEEQV; listed as Homo sapiens) [compound 16] | ++ (20%-49% = ++)
13 | 18 (YVLNEEDLQKV; listed as Homo sapiens) [compound 18] | +++ (50%-75% = +++)
14 | 19 (TLLPTVLTL; listed as Homo sapiens) [compound 19] | +++ (50%-75% = +++)
15 | 20 (ALDGHLYAI; listed as Homo sapiens) [compound 20] | +++ (50%-75% = +++)
16 | 21 (SLYHRVLLY; listed as Homo sapiens) [compound 21] | ++++ (>=75% = ++++)
17 | 22 (MLSDLTLQL; listed as Homo sapiens) [compound 22] | ++++ (>=75% = ++++)
18 | 23 (AQTVVVIKA; listed as Homo sapiens) [compound 23] | + (<20% = +)
19 | 24 (FLWNGEDSAL; listed as Homo sapiens) [compound 24] | +++ (50%-75% = +++)
20 | 25 (IQADDFRTL; listed as Homo sapiens) [compound 25] | ++ (20%-49% = ++)
21 | 26 (KVDGVVIQL; listed as Homo sapiens) [compound 26] | +++ (50%-75% = +++)
22 | 27 (KVFGDLDQV; listed as Homo sapiens) [compound 27] | +++ (50%-75% = +++)
23 | 28 (TLYSMDLMKV; listed as Homo sapiens) [compound 28] | +++ (50%-75% = +++)
24 | 29 (TLCNKTFTA; listed as Homo sapiens) [compound 29] | +++ (50%-75% = +++)
25 | 31 (ALSDETKNNWEV; listed as Homo sapiens) [compound 31] | ++++ (>=75% = ++++)

Row | Substance | MHC class I binding score, Peptide exchange
26 | 32 (ILADEAFFSV; listed as Homo sapiens) [compound 32] | +++ (50%-75% = +++)
27 | 33 (LLLPLLPPLSPSLG; listed as Homo sapiens) [compound 33] | +++ (50%-75% = +++)
28 | 35 (YVLPKLYVKL; listed as Homo sapiens) [compound 35] | ++ (20%-49% = ++)
29 | 36 (KLYGIEIEV; listed as Homo sapiens) [compound 36] | ++++ (>=75% = ++++)
30 | 37 (ALINDILGELVKL; listed as Homo sapiens) [compound 37] | +++ (50%-75% = +++)
31 | 38 (KMQEDLVTL; listed as Homo sapiens) [compound 38] | +++ (50%-75% = +++)
32 | 39 (ALMAVVSGL; listed as Homo sapiens) [compound 39] | +++ (50%-75% = +++)
33 | 40 (SLLALPQDLQA; listed as Homo sapiens) [compound 40] | +++ (50%-75% = +++)
34 | 41 (FVLPLVVTL; listed as Homo sapiens) [compound 41] | +++ (50%-75% = +++)
35 | 42 (VLSPFILTL; listed as Homo sapiens) [compound 42] | +++ (50%-75% = +++)
36 | 44 (GLLWQIIKV; listed as Homo sapiens) [compound 44] | ++ (20%-49% = ++)
37 | 45 (VLGPTPELV; listed as Homo sapiens) [compound 45] | +++ (50%-75% = +++)
38 | 46 (SLAKHGIVAL; listed as Homo sapiens) [compound 46] | +++ (50%-75% = +++)
39 | 47 (GLYQAQVNL; listed as Homo sapiens) [compound 47] | +++ (50%-75% = +++)
40 | 48 (TLDHKPVTV; listed as Homo sapiens) [compound 48] | ++ (20%-49% = ++)
41 | 49 (LLDESKLTL; listed as Homo sapiens) [compound 49] | +++ (50%-75% = +++)
42 | 50 (EYALLYHTL; listed as Homo sapiens) [compound 50] | ++ (20%-49% = ++)
43 | 51 (LLLDGDFTL; listed as Homo sapiens) [compound 51] | +++ (50%-75% = +++)
44 | 52 (ELLSSIFFL; listed as Homo sapiens) [compound 52] | +++ (50%-75% = +++)
45 | 53 (SLLSHVIVA; listed as Homo sapiens) [compound 53] | +++ (50%-75% = +++)
46 | 54 (FINPKGNWLL; listed as Homo sapiens) [compound 54] | +++ (50%-75% = +++)
47 | 55 (IASAIVNEL; listed as Homo sapiens) [compound 55] | ++ (20%-49% = ++)
48 | 56 (KILDLTRVL; listed as Homo sapiens) [compound 56] | ++ (20%-49% = ++)
49 | 57 (VLISSTVRL; listed as Homo sapiens) [compound 57] | ++ (20%-49% = ++)
50 | 58 (ALDDSLTSL; listed as Homo sapiens) [compound 58] | ++ (20%-49% = ++)
